Measurements taken from patent US20230039487A1 (published 2023).

T1: hu (human) BCMA ECD His (ACRO, BCA-H522y) (human, UniProt Q02223 1-54)
T1 chain: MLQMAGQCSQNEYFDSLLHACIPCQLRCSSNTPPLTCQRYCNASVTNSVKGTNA

T2: hBCMA ECD hFc (ACRO, BC7-H5254) (human, UniProt Q02223 1-54)
T2 chain: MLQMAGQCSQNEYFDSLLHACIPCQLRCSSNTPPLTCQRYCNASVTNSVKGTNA


Tests used:
[1] = biological target: T1, hu (human) BCMA ECD His (ACRO, …); test: ELISA
[2] = biological target: T2, hBCMA ECD hFc (ACRO, BC7-H5254); test: ELISA
[3] = biological target: T2, hBCMA ECD hFc (ACRO, BC7-H5254); test: BLI (Fortebio)

Binder	EC50 [1]	EC50 [2]	Kd [3]
5E2 (antibody, V domains shown) VH: EVQLQQSGPELIKPGASVKMSCKASGYTFTSYVVHWVKQKPGQGLEWIGYIIPYNDDTKYNEKFKGKATLTSDKSSSTAYMELSSLTSEDSAVYYCARWDYDDGYFDYWGQGTTLTVSS VL: DVVMTQTPLSLPVTLGDQASISCRSSQSLLHSNGNTYLHWYLQKPGQSPKLLIYKVSNRFSGVPDRFSGSGSGTDFTLKISRVEAEDLGVYFCSQITHIPFTFGSGTKLEIKR	0.054 nM	0.279 nM	< 1 pM
R0317 (C11D5.3 BCMA mouse monoclonal antibody) (antibody, V domains shown) VH: QIQLVQSGPELKKPGETVKISCKASGYTFTDYSINWVKRAPGKGLKWMGWINTETREPAYAYDFRGRFAFSLETSASTAYLQINNLKYEDTATYFCALDYSYAMDYWGQGTSVTVSS VL: DIVLTQSPASLAMSLGKRATISCRASESVSVIGAHLIHWYQQKPGQPPKLLIYLASNLETGVPARFSGSGSGTDFTLTIDPVEEDDVAIYSCLQSRIFPRTFGGGTKLEIK	–	0.32 nM	< 1 pM
5F4 (antibody, V domains shown) VH: EVQLQQSGPELIKPGASVKMSCKASAGKWERWAHWVKQKPGQGLEWIGYKPAYWTSAYNEKFKGKATLTSDKSSSTAYMELSSLTSEDSAVYYCATLDYDDGYFDYWGQGTTLTVSS VL: EIVLTQSPGTLSLSPGERATLSCRASQSVSSSYLAWYQQKPGQAPRLLIYQASSDATGIPDRFSGSGSGTDFTLTISRLEPEDFAVYYCQQYGYPPSYTFGQGTKVEIK	–	0.305 nM	< 1 pM
hu VH1-VL1 (antibody, V domains shown) VH: QVQLVQSGAEVKKPGASVKMSCKASGYTFTSYVVHWVRQAPGQGLEWIGYIIPYNDDTKYNEKFKGKATLTSDKSSSTAYMELSSLRSEDTAVYYCARWDYDDGYFDYWGQGTTVTVSS VL: DVVMTQSPLSLPVTLGQPASISCRSSQSLLHSNGNTYLHWYLQKPGQSPQLLIYKVSNRFSGVPDRFSGSGSGTDFTLKISRVEAEDVGVYFCSQITHIPFTFGQGTKLEIK	0.0474 nM	–	–

Second part, the binder after the results:

EC50 [1]	EC50 [2]	Kd [3]	Binder
0.0506 nM	–	–	hu VH2-VL1 (antibody, V domains shown) VH: QVQLVQSGAEVKKPGASVKMSCKASGYTFTSYVVHWVRQAPGQGLEWIGYIIPYNDDTKYNEKFKGRVTLTSDKSTSTAYMELSSLRSEDTAVYYCARWDYDDGYFDYWGQGTTVTVSS VL: DVVMTQSPLSLPVTLGQPASISCRSSQSLLHSNGNTYLHWYLQKPGQSPQLLIYKVSNRFSGVPDRFSGSGSGTDFTLKISRVEAEDVGVYFCSQITHIPFTFGQGTKLEIK
0.0545 nM	–	–	hu VH1-VL3 (antibody, V domains shown) VH: QVQLVQSGAEVKKPGASVKMSCKASGYTFTSYVVHWVRQAPGQGLEWIGYIIPYNDDTKYNEKFKGKATLTSDKSSSTAYMELSSLRSEDTAVYYCARWDYDDGYFDYWGQGTTVTVSS VL: DIVMTQTPLSLSVTPGQPASISCKSSQSLLHSNGNTYLHWYLQKPGQPPQLLIYKVSNRFSGVPDRFSGSGSGTDFTLKISRVEAEDVGVYYCSQITHIPFTFGQGTKLEIKR
0.0206 nM	–	–	hu VH1-VL2 (antibody, V domains shown) VH: QVQLVQSGAEVKKPGASVKMSCKASGYTFTSYVVHWVRQAPGQGLEWIGYIIPYNDDTKYNEKFKGKATLTSDKSSSTAYMELSSLRSEDTAVYYCARWDYDDGYFDYWGQGTTVTVSS VL: DVVMTQTPLSLSVTPGQPASISCKSSQSLLHSNGNTYLHWYLQKPGQSPQLLIYKVSNRFSGVPDRFSGSGSGTDFTLKISRVEAEDVGVYFCSQITHIPFTFGQGTKLEIK
